A word on the Kd: it is a measure of binding affinity in units of concentration.

The test concerns the target T1, GBP1 mutant R227A/K228A (human, UniProt P32455 1-592, R227A | K228A).
T1 sequence (looked up): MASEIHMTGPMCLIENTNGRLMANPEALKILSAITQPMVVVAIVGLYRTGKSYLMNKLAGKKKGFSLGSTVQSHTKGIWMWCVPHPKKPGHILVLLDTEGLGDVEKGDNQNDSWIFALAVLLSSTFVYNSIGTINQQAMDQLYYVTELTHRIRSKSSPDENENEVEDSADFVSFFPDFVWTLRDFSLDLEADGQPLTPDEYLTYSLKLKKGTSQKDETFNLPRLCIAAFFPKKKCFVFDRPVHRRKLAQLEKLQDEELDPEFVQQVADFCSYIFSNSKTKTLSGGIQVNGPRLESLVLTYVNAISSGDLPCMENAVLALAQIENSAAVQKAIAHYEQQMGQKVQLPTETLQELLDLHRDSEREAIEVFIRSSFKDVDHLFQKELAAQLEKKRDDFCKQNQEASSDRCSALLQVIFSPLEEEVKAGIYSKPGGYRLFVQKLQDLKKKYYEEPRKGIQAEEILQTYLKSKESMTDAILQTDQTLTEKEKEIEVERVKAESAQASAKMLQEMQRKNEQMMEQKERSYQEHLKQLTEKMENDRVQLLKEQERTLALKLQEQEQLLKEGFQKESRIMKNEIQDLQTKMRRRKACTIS
The experiment in a line: SPR. (In general: In SPR one partner is held on a chip, and binding of the other changes the refractive index at the surface.)

B1: PIM1 (recombinant) (enzyme)
chain: not shown
With B1, binding was put at a Kd of 137 ± 14 nM.

Values taken from publication PMC4191604 (Journal of Medicinal Chemistry, 2014).
